Reference: PMC3029386, “Determinants Outside the DevR C-Terminal Domain Are Essential for Cooperativity and Robust Activation of Dormancy Genes in Mycobacterium tuberculosis”

Legend:
[1] = molecular target: DevRC (DevR C-terminal domain) (Mycobacterium tuberculosis H37Rv, UniProt P9WMF9 141-217); assay: EMSA; settings: protein: recombinant; tags: N-terminal His6 (pET28a, pUS-DevRC); chain copies: 2
DevR (full-length) = DevR (full-length) (Mycobacterium tuberculosis, UniProt P9WMF9 1-217); assay: EMSA; settings: protein: recombinant; tags: N-terminal His6 (pAV-DevR); chain copies: 2
Sequence of DevR (full-length) (P9WMF9 whole entry): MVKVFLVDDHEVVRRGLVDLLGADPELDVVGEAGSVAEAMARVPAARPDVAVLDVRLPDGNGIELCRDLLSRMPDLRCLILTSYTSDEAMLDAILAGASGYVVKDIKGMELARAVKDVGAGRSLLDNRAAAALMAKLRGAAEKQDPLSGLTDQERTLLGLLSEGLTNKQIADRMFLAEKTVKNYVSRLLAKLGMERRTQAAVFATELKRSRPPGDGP

Sequence of DevRC (DevR C-terminal domain) (P9WMF9 141-217): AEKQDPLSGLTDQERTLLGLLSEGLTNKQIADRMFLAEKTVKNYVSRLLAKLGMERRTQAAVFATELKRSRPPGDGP

B1: P+S box (LH1/LH2), tgs1-Rv3131 promoter (dsDNA)
DNA 1: CGAGTCGACAGAGCACGAAGGCTCGCCAGCGGAGGACCTTTGGCCCTGCGTCGACCGA
DNA 2: TCGGTCGACGCAGGGCCAAAGGTCCTCCGCTGGCGAGCCTTCGTGCTCTGGTCGACTCG
- binding result [1]: binds
- binding result (DevR (full-length)): binds
